Bridge positions count the residues as written; N and C are the ends. Square brackets hold non-standard residues; d marks the D form. Ends that are not written are not given here. 1Nal = N[C@@H](Cc1cccc2ccccc12)C(=O)O; 2Nal = N[C@@H](Cc1ccc2ccccc2c1)C(=O)O; d2Nal = N[C@H](Cc1ccc2ccccc2c1)C(=O)O; Bta = N[C@@H](Cc1csc2ccccc12)C(=O)O; Aic = NC1(C(=O)O)Cc2ccccc2C1; Pen = CC(C)(S)[C@H](N)C(=O)O; Ac6c = NC1(C(=O)O)CCCCC1; Nle = CCCC[C@H](N)C(=O)O; Ac3c = NC1(C(=O)O)CC1; GABA = NCCCC(=O)O; βAla = NCCC(=O)O
B1: c[Hydantoin(C(O)-(Asp-A3c))-D-2-Nal-Arg-Trp-Lys]-NH2 (peptide)
peptide: D[Ac3c][d2Nal]RWK-NH2
modifications: lactam 1-6; also: hydantoin ring: N-terminal N of Asp1 and backbone N of residue 2 bridged by one C(O), bridge at N via C(O), other end not in the chain
B2: c[Hydantoin(C(O)-(Asp-Aic))-D-2-Nal-Arg-Trp-Lys]-NH2 (peptide)
peptide: D[Aic][d2Nal]RWK-NH2
modifications: lactam 1-6; also: hydantoin ring: N-terminal N of Asp1 and backbone N of residue 2 bridged by one C(O), bridge at N via C(O), other end not in the chain
B3: Ac-Nle-c(Asp-D-Ala-His-D-Phe-Arg-Bal-Lys)-NH2 (peptide)
peptide: Ac-[Nle]D[dA]H[dF]R[Bta]K-NH2
modifications: lactam 2-8
SMILES: CCCC[C@H](NC(C)=O)C(=O)N[C@H]1CC(=O)NCCCC[C@@H](C(N)=O)NC(=O)[C@H](Cc2csc3ccccc23)NC(=O)[C@H](CCCNC(=N)N)NC(=O)[C@@H](Cc2ccccc2)NC(=O)[C@H](Cc2c[nH]cn2)NC(=O)[C@@H](C)NC1=O
B4: Ac-c(Cys-Glu-His-D-Phe-Arg-Trp-Ala-Cys)-NH2 (peptide)
peptide: Ac-CEH[dF]RWAC-NH2
modifications: disulfide 1-8
SMILES: CC(=O)N[C@H]1CSSC[C@@H](C(N)=O)NC(=O)[C@H](C)NC(=O)[C@H](Cc2c[nH]c3ccccc23)NC(=O)[C@H](CCCNC(=N)N)NC(=O)[C@@H](Cc2ccccc2)NC(=O)[C@H](Cc2c[nH]cn2)NC(=O)[C@H](CCC(=O)O)NC1=O
B5: Ac-Arg-c(Cys-His-D-Phe-Arg-Trp-Gaba-Pen)-NH2 (peptide)
peptide: Ac-RCH[dF]RW[GABA][Pen]-NH2
modifications: disulfide 2-8
SMILES: CC(=O)N[C@@H](CCCNC(=N)N)C(=O)N[C@H]1CSSC(C)(C)[C@@H](C(N)=O)NC(=O)CCCNC(=O)[C@H](Cc2c[nH]c3ccccc23)NC(=O)[C@H](CCCNC(=N)N)NC(=O)[C@@H](Cc2ccccc2)NC(=O)[C@H](Cc2c[nH]cn2)NC1=O
B6: Ac-c(Cys-D-Ala-His-D-Phe-Arg-2-Nal-Ala-Cys)-NH2 (peptide)
peptide: Ac-C[dA]H[dF]R[2Nal]AC-NH2
modifications: disulfide 1-8
SMILES: CC(=O)N[C@H]1CSSC[C@@H](C(N)=O)NC(=O)[C@H](C)NC(=O)[C@H](Cc2ccc3ccccc3c2)NC(=O)[C@H](CCCNC(=N)N)NC(=O)[C@@H](Cc2ccccc2)NC(=O)[C@H](Cc2c[nH]cn2)NC(=O)[C@@H](C)NC1=O
B7: c[Hydantoin(C(O)-(Asp-A6c))-D-2-Nal-Arg-Trp-Lys]-NH2 (peptide)
peptide: D[Ac6c][d2Nal]RWK-NH2
modifications: lactam 1-6; also: hydantoin ring: N-terminal N of Asp1 and backbone N of residue 2 bridged by one C(O), bridge at N via C(O), other end not in the chain
B8: Ac-Nle-c(Asp-D-Ala-His-D-Phe-Arg-Trp-Lys)-NH2 (peptide)
peptide: Ac-[Nle]D[dA]H[dF]RWK-NH2
modifications: lactam 2-8
SMILES: CCCC[C@H](NC(C)=O)C(=O)N[C@H]1CC(=O)NCCCC[C@@H](C(N)=O)NC(=O)[C@H](Cc2c[nH]c3ccccc23)NC(=O)[C@H](CCCNC(=N)N)NC(=O)[C@@H](Cc2ccccc2)NC(=O)[C@H](Cc2c[nH]cn2)NC(=O)[C@@H](C)NC1=O
B9: Ac-Nle-c(Cys-His-D-Phe-Arg-D-Trp-β-Ala-Cys)-NH2 (peptide)
peptide: Ac-[Nle]CH[dF]R[dW][βAla]C-NH2
modifications: disulfide 2-8
SMILES: CCCC[C@H](NC(C)=O)C(=O)N[C@H]1CSSC[C@@H](C(N)=O)NC(=O)CCNC(=O)[C@@H](Cc2c[nH]c3ccccc23)NC(=O)[C@H](CCCNC(=N)N)NC(=O)[C@@H](Cc2ccccc2)NC(=O)[C@H](Cc2c[nH]cn2)NC1=O
B10: Ac-c(Cys-Glu-His-D-2-Nal-Arg-Bal-Ala-Cys)-Pro-Pro-Lys-Asp-β-Ala-Tyr-Gly-Arg-Lys-Lys-Arg-Arg-Gln-Arg-Arg-Arg-NH2 (peptide)
peptide: CEHXRXACPPKDXYGRKKRRQRRR
modifications: N-terminal Ac; D-2-Nal at 4; Bal at 6; β-Ala at 13; disulfide Cys1-Cys8; C-terminal NH2
B11: Ac-Nle-c(Cys-D-Ala-His-D-Phe-Arg-Trp-Cys)-(Doc)2-Tyr-Gly-Arg-Lys-Lys-Arg-Arg-Gln-Arg-Arg-Arg-NH2 (peptide)
peptide: XCAHFRWCXXYGRKKRRQRRR
modifications: N-terminal Ac; Nle at 1; D-Ala at 3; D-Phe at 5; Doc at 9 and 10; disulfide Cys2-Cys8; C-terminal NH2
B12: Ac-c(Cys-Glu-His-D-2-Nal-Arg-1-Nal-Ala-Cys)-Pro-Pro-Lys-Asp-β-Ala-Tyr-Gly-Arg-Lys-Lys-Arg-Arg-Gln-Arg-Arg-Arg-NH2 (peptide)
peptide: CEHXRXACPPKDXYGRKKRRQRRR
modifications: N-terminal Ac; D-2-Nal at 4; 1-Nal at 6; β-Ala at 13; disulfide Cys1-Cys8; C-terminal NH2
B13: Phe-c(Cys-His-D-Phe-Arg-Trp-Gaba-Cys)-NH2 (peptide)
peptide: FCH[dF]RW[GABA]C-NH2
modifications: disulfide 2-8; N-terminus assumed
SMILES: N=C(N)NCCC[C@@H]1NC(=O)[C@@H](Cc2ccccc2)NC(=O)[C@H](Cc2c[nH]cn2)NC(=O)[C@@H](NC(=O)[C@@H](N)Cc2ccccc2)CSSC[C@@H](C(N)=O)NC(=O)CCCNC(=O)[C@H](Cc2c[nH]c3ccccc23)NC1=O
B14: Ac-D-Arg-c(Cys-His-D-Phe-Arg-Trp-Gaba-Pen)-NH2 (peptide)
peptide: Ac-[dR]CH[dF]RW[GABA][Pen]-NH2
modifications: disulfide 2-8
SMILES: CC(=O)N[C@H](CCCNC(=N)N)C(=O)N[C@H]1CSSC(C)(C)[C@@H](C(N)=O)NC(=O)CCCNC(=O)[C@H](Cc2c[nH]c3ccccc23)NC(=O)[C@H](CCCNC(=N)N)NC(=O)[C@@H](Cc2ccccc2)NC(=O)[C@H](Cc2c[nH]cn2)NC1=O

Experiments:
[1] = biological target: T1, human melanocortin receptor subtype 1 (hMC1-R) (human, UniProt Q01726 1-317); experiment: [125I]-NDP-α-MSH competition, membranes
T1 construct: whole, on cells; membranes of CHO-K1 cells

[2] = biological target: T2, human melanocortin receptor subtype 3 (hMC3-R) (human, UniProt P41968 1-323); experiment: [125I]-NDP-α-MSH competition, membranes
T2 construct: whole, on cells; membranes of CHO-K1 cells

[3] = biological target: T3, human melanocortin receptor subtype 5 (hMC5-R) (human, UniProt P33032 1-325); experiment: [125I]-NDP-α-MSH competition, membranes
T3 construct: whole, on cells; membranes of CHO-K1 cells

[4] = biological target: T4, human melanocortin receptor subtype 4 (hMC4-R) (human, UniProt P32245 1-332); experiment: [125I]-NDP-α-MSH competition, membranes
T4 construct: whole, on cells; membranes of CHO-K1 cells

[5] = biological target: T5, hMC1-R (human, UniProt Q01726 1-317); experiment: ratio Ki hMC1-R / Ki hMC4-R, same assay
T5 construct: whole, on cells; Assayed as membranes of CHO-K1 cells expressing the receptor; also called hMC-R receptor subtype 1; melanocyte-specific receptor (MC1-R)
Procedure: (§1) Cellular membranes used for the in vitro receptor binding assays were obtained from transgenic CHO-K1 cells stably expressing hMC-R receptor subtypes 1, 3, 4 or 5. […] The pellets were resuspended in the same buffer and centrifuged at 50,000 g for 10 minutes at approximately 4° C. The washed pellets containing the cellular membranes were stored at approximately −80° C.
(§2) Competitive inhibition of [¹²⁵I](Tyr²)-(Nle⁴-D-Phe⁷)α-MSH ([¹²⁵I]-NDP-α-MSH, Amersham Biosciences®) binding was carried out in polypropylene 96 well plates. Cell membranes (1-10 μg protein/well) prepared as described above were incubated in 50 mM Tris-HCl at pH 7.4 containing 0.2% bovine serum albumin (BSA), 5 mM MgCl₂, 1 mM CaCl₂ and 0.1 mg/mL bacitracin, with increasing concentrations of the test compound and 0.1-0.3 nM […] for approximately 90-120 minutes at approximately 37° C. Bound [¹²⁵I]-NDP-α-MSH ligand was separated from free [¹²⁵I]-NDP-α-MSH by filtration through GF/C glass fiber filter plates (Unifilter®; Packard) presoaked with 0.1% (w/v) polyethylenimine (PEI), using a Packard Filtermate® harvester. Filters were washed three times with 50 mM Tris-HCl at pH 7.4 at a temperature of approximately 0-4° C. and then assayed for radioactivity using a Packard Topcount® scintillation counter. Binding data were analyzed by computer-assisted non-linear regression analysis (XL fit; IDBS).

[6] = biological target: T6, hMC3-R (human, UniProt P41968 1-323); experiment: competition with [125I]-NDP-α-MSH, CHO-K1 membranes
T6 construct: whole, on cells; Assayed as membranes of CHO-K1 cells expressing the receptor; also called hMC-R receptor subtype 3; melacortin-3 (MC3-R)
Procedure: as §1, §2

[7] = biological target: T7, hMC5-R (human, UniProt P33032 1-325); experiment: as above
T7 construct: whole, on cells; Assayed as membranes of CHO-K1 cells expressing the receptor; also called hMC-R receptor subtype 5; melanocortin-5 receptor (MC5-R)
Procedure: as §1, §2

[8] = biological target: T5, hMC1-R; experiment: as above
Procedure: as §1, §2

[9] = biological target: T8, hMC4-R (human, UniProt P32245 1-332); experiment: as above
T8 construct: whole, on cells; Assayed as membranes of CHO-K1 cells expressing the receptor; also called hMC-R receptor subtype 4; melanocortin-4 (MC4-R)
Procedure: as §1, §2

T6 sequence (P41968 whole entry): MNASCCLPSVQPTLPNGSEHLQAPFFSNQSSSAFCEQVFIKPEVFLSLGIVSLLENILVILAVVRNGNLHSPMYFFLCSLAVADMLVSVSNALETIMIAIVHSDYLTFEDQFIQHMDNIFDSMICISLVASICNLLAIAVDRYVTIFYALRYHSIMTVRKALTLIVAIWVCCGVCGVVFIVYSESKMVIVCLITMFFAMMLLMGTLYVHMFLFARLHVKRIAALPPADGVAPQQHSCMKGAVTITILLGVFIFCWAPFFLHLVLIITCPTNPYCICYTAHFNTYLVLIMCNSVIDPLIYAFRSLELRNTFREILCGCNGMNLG
T2 sequence (P41968 whole entry): as above
T7 sequence (P33032 whole entry): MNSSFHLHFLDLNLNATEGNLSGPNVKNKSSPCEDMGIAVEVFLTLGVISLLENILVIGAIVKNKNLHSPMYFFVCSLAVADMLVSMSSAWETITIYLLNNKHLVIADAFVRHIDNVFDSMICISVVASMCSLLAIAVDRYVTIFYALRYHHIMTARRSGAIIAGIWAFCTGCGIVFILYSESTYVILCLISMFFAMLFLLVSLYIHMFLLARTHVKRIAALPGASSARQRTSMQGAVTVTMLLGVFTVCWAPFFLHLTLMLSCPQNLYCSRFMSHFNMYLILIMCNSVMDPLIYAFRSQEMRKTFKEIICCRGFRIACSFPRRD
T3 sequence (P33032 whole entry): as above
T1 sequence (Q01726 whole entry): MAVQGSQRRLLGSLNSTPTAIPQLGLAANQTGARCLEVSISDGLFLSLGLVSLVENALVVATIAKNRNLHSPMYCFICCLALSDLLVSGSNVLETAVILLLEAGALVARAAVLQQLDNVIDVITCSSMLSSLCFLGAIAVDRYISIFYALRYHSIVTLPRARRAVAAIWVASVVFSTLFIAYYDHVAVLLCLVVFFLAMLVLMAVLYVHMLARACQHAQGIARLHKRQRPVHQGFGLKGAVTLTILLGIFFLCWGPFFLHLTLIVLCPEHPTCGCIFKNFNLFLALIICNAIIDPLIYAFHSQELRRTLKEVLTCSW
T5 sequence (Q01726 whole entry): as above
T4 sequence (P32245 whole entry): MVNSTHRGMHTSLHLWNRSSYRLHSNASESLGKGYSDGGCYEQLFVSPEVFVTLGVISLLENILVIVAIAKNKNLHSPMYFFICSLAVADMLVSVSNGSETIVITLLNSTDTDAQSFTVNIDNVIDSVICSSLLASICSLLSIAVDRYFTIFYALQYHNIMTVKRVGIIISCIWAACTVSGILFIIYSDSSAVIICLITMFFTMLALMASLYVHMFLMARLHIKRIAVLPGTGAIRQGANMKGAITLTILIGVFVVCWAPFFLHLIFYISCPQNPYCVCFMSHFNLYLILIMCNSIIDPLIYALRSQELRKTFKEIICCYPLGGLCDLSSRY
T8 sequence (P32245 whole entry): as above

Binder	Ki [1]	Ki [2]	Ki [3]	Ki [4]	Ki hMC1-R/MC4-R [5]	Ki [6]	Ki [7]	Ki [8]	Ki [9]
B1	7570 nM	1920 nM	2880 nM	420 nM					
GCEH[dF]RWC-NH2 (disulfide 2-8; also: hydantoin ring from C(O) with Gly1-Cys2) [c[Hydantoin(C(O)-(Gly-Cys))-Glu-His-D-Phe-Arg-Trp-Cys]-NH2]	15.6 nM	305 nM	3070 nM	8.92 nM					
B2	9030 nM	2630 nM	1160 nM	35.8 nM					
B3					0.08	445 nM	4300 nM	4.12 nM	50.6 nM
B4					2.33	1710 nM	694 nM	111 nM	47.7 nM
Ac-C[dA]H[dF]RWAC-NH2 (disulfide 1-8) [Ac-c(Cys-D-Ala-His-D-Phe-Arg-Trp-Ala-Cys)-NH2]					2.06	5990 nM		199 nM	96.7 nM
B5					0.4	20.5 nM	502 nM	1.81 nM	4.57 nM
B6					3.24	4560 nM	8810 nM	132 nM	40.7 nM
B7	2170 nM	1480 nM	451 nM	16.5 nM					
Ac-FCH[dF]RW[GABA]C-NH2 (disulfide 2-8) [Ac-Phe-c(Cys-His-D-Phe-Arg-Trp-Gaba-Cys)-NH2]					0.12				
B8					0.26	98.9 nM	4.19 nM	0.659 nM	2.55 nM
Ac-[Nle]C[dA]H[dF]RWAC-NH2 (disulfide 2-9) [Ac-Nle-c(Cys-D-Ala-His-D-Phe-Arg-Trp-Ala-Cys)-NH2]					0.41	1130 nM	2860 nM	9.12 nM	22.1 nM
B9					0.16	14.1 nM	24 nM	0.323 nM	1.96 nM
B10	6.46 nM	5.22 nM	15.3 nM	0.38 nM					
Ac-CEH[d2Nal]R[1Nal]ACPPKD[βAla]RRRRRQRRR-NH2 (disulfide 1-8) [Ac-c(Cys-Glu-His-D-2-Nal-Arg-1-Nal-Ala-Cys)-Pro-Pro-Lys-Asp-β-[…]NH2]	2.42 nM	6.56 nM	41.7 nM	0.238 nM					
B11	0.211 nM	0.665 nM	118 nM	0.635 nM					
B12	4.59 nM	6.28 nM	22.6 nM	0.588 nM					
B13					0.04		0.537 nM	0.186 nM	4.93 nM
B14					0.36	172 nM	538 nM	3.93 nM	11 nM

Reference: patent US20120135923A1 (IPSEN PHARMA S A S, published 2012)
